Numbering of substitutions follows the chain as printed. Names and notes keep the numbering of the source.
Columns and labels:
human CD3ε [1] = biological target: T1, human CD3ε (human, UniProt P07766 23-207); assay: flow cytometry, Jurkat cells
T1 construct: whole, on cells; Present on cells as part of the CD3/TCR complex; also called CD3 epsilon

[2] = biological target: T2, human CEACAM5 (carcinoembryonic antigen, CEA), cell surface (human, UniProt P06731 35-685); assay: cell-based or functional assay
T2 sequence (looked up): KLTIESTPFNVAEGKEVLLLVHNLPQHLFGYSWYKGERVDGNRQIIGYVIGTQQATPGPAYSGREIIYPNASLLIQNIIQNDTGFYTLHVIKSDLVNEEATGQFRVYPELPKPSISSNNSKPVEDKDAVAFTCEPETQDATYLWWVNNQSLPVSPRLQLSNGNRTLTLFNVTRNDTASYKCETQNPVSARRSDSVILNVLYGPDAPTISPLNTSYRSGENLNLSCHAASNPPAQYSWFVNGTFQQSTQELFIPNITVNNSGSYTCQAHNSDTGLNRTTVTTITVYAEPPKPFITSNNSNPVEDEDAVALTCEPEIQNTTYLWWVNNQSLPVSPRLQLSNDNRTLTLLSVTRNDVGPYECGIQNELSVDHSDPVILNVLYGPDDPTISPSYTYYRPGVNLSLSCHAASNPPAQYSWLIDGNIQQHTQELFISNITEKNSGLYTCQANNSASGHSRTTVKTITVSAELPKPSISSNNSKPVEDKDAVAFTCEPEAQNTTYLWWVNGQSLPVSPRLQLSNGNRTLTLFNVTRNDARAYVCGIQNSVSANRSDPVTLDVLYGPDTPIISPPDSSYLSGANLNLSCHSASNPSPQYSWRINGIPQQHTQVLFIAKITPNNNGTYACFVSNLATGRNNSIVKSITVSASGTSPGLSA

[3] = biological target: T2, human CEACAM5 (carcinoembryonic …); assay: flow cytometry, CEA positive cells
[4] = biological target: T3, shed soluble CEACAM5 (sCEA) (human, UniProt P06731 35-685, limits assumed); assay: cell-based or functional assay
T3 sequence (looked up): T2 sequence (looked up)

[5] = biological target: T2, human CEACAM5 (carcinoembryonic …); assay: flow cytometry, MKN-45 cells
Source text: Examples of cells that can be used include CEACAM5-positive cell lines such as the gastric adenocarcinoma cell line MKN45 (expressing 155′000 CEACAM5 molecules per cell), or the pancreatic adenocarcinoma cell line HPAF-II (expressing 108′000 CEACAM5 molecules per cell) or the colorectal adenocarcinoma cell line LS174T (expressing 26′000 CEACAM5 molecules per cell) and CEACAM5-negative cell lines, such as the lung carcinoma cell line A549 and the MKN45 CEACAM5-knock out cell line generated by CRISPR-CAS9 methodology. Cell staining and binding assessment can be performed as described above. Binding of the bsAb of the invention at 200 nM, 1000 nM and 5000 nM is 40% and higher compared to binding of TCB2014 (see Table 4 and also FIGS. 11 and 14).

human CD3ε [6] = biological target: T1, human CD3ε; assay: flow cytometry, primary CD4+ and CD8+ T-cells
[7] = biological target: T4, biotinylated recombinant human CEACAM5 protein (human, UniProt P06731 35-685, biotinylated in vitro with biotin ligase (Avitag)); assay: competition ELISA with reference antibodies
T4 construct: extracellular domain; also called recombinant CEA; CEA ECD; not shown: C-terminal Avitag and either a hexa-histidine tag, a human Fc region or a mouse Fc region; which one was used in the ELI
T4 sequence (looked up): T2 sequence (looked up)

T1 sequence (P07766 23-207): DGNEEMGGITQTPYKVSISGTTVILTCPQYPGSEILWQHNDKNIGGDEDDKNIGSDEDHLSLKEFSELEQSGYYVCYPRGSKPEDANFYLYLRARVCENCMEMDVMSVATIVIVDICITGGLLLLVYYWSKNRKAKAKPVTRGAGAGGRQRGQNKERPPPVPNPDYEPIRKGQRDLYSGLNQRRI

B1: AB1 L3-1/D (bispecific antibody, human IgG1, kappa, lambda, L234A L235A)
heavy: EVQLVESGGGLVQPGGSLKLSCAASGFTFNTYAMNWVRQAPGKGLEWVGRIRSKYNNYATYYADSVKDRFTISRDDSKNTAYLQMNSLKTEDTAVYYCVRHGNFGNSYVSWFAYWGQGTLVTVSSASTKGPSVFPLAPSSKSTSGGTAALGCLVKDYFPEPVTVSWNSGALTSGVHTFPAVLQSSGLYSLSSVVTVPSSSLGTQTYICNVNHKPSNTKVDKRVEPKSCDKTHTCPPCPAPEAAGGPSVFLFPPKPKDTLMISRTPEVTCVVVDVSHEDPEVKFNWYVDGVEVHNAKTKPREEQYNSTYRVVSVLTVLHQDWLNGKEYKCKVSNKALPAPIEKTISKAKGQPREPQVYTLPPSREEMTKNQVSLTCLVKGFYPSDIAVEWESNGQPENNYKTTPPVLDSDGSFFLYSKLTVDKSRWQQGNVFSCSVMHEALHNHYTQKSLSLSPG
light 1: EIVLTQSPATLSLSPGERATLSCRASQSVNSNLNWYQQKPGQAPRLLIYHGSNRATGIPARFSGSGSGTDFTLTISSLEPEDFAVYYCQQFDLRHEHNTFGQGTKVEIKRTVAAPSVFIFPPSDEQLKSGTASVVCLLNNFYPREAKVQWKVDNALQSGNSQESVTEQDSKDSTYSLSSTLTLSKADYEKHKVYACEVTHQGLSSPVTKSFNRGEC
light 2: QTVVTQEPSLTVSPGGTVTLTCRSSTGAVTTSNYANWFQQKPGQAPRGLIGGTNKRAPGTPARFSGSLLGGKAALTLSGAQPEDEAEYYCALWYKQRWVFGGGTKLTVLGQPKAAPSVTLFPPSSEELQANKATLVCLISDFYPGAVTVAWKADSSPVKAGVETTTPSKQSNNKYAASSYLSLTPEQWKSHRSYSCQVTHEGSTVEKTVAPTECS
notes: KL CEAxCD3 bispecific antibody, hIgG1 L234A+L235A
binding result (human CD3ε [1]): binds

B2: AB66L3-1/N (bispecific antibody, human IgG1, kappa, lambda, L234A L235A)
heavy: EVQLVESGGGLVQPGGSLKLSCAASGFTFNTYAMNWVRQAPGKGLEWVGRIRSKYNNYATYYADSVKDRFTISRDDSKNTAYLQMNSLKTEDTAVYYCVRHGNFGNSYVSWFAYWGQGTLVTVSSASTKGPSVFPLAPSSKSTSGGTAALGCLVKDYFPEPVTVSWNSGALTSGVHTFPAVLQSSGLYSLSSVVTVPSSSLGTQTYICNVNHKPSNTKVDKRVEPKSCDKTHTCPPCPAPEAAGGPSVFLFPPKPKDTLMISRTPEVTCVVVDVSHEDPEVKFNWYVDGVEVHNAKTKPREEQYNSTYRVVSVLTVLHQDWLNGKEYKCKVSNKALAAPIEKTISKAKGQPREPQVYTLPPSREEMTKNQVSLTCLVKGFYPSDIAVEWESNGQPENNYKTTPPVLDSDGSFFLYSKLTVDKSRWQQGNVFSCSVMHEALHNHYTQKSLSLSPG
light 1: B1 light 1 with R24H, A25S, S28V, S31K, L93Y, R94F, H95R
light 2: B1 light 2
notes: Kappa-lambda body, lead optimization wave 2
Killing EC50, HPAFII cells (TDCC, LDH release) [2]: 0.2 nM | Killing EC50, LS174T cells (TDCC, LDH release) [2]: 0.22 nM | Killing EC50, MKN45 cells (TDCC, LDH release) [2]: 0.05 nM | binding higher than TCB2014 (at 200 nM) [3]: ≥ 40% | EC50 fold change compared to no shed CEA condition, sCEA 0 µg/mL (reference) [4]: 1 fold | EC50 fold change compared to no shed CEA condition, sCEA 0.2 µg/mL [4]: 1.2 fold | EC50 fold change compared to no shed CEA condition, sCEA 1 µg/mL [4]: 2.1 fold | EC50 fold change compared to no shed CEA condition, sCEA 5 µg/mL [4]: 3.1 fold | EC50 [5]: 24.3 nM | Top MFI value [5]: 759000 MFI | binding higher than TCB2014 (at 200 nM, 1000 nM and 5000 nM) [5]: ≥ 40% | binding result (human CD3ε [6]): binds

B3: AB60L3-1/N (bispecific antibody, human IgG1, kappa, lambda, L234A L235A)
heavy: B2 heavy
light 1: B1 light 1 with S28T, S31A, H50Y, G51A, L93Y, R94H, H95N
light 2: B1 light 2
notes: as for B2
Killing EC50, HPAFII cells (TDCC, LDH release) [2]: 0.28 nM | Killing EC50, LS174T cells (TDCC, LDH release) [2]: 0.21 nM | Killing EC50, MKN45 cells (TDCC, LDH release) [2]: 0.13 nM | binding higher than TCB2014 (at 200 nM) [3]: ≥ 40% | EC50 fold change compared to no shed CEA condition, sCEA 0 µg/mL (reference) [4]: 1 fold | EC50 fold change compared to no shed CEA condition, sCEA 0.2 µg/mL [4]: 0.9 fold | EC50 fold change compared to no shed CEA condition, sCEA 1 µg/mL [4]: 0.8 fold | EC50 fold change compared to no shed CEA condition, sCEA 5 µg/mL [4]: 1.3 fold | EC50 [5]: 64.1 nM | Top MFI value [5]: 989000 MFI | binding higher than TCB2014 (at 200 nM, 1000 nM and 5000 nM) [5]: ≥ 40% | binding result (human CD3ε [6]): binds

B4: anti-CEA antibody C11 (antibody, human IgG1, kappa, V domains shown)
VH: EVQLVESGGGLVQPGGSLKLSCAASGFTFNTYAMNWVRQAPGKGLEWVGRIRSKYNNYATYYADSVKDRFTISRDDSKNTAYLQMNSLKTEDTAVYYCVRHGNFGNSYVSWFAYWGQGTLVTVSS
VL: DIQMTQSPSTLSASVGDRVTITCRASQLISNGLYWYQQKPGKAPKLLIYDASILESGVPSRFSGSGSGTEFTLTISSLQPDDFATYYCQQRLSWPLTFGQGTKVEIKR
notes: Bivalent monoclonal antibody; also called C11 mAb
binding result [7]: binds
